In the nanobody polyreactivity screen of Harvey et al. (2022):

Assay: yeast display, Sf9 membrane polyspecificity reagent, FACS + sequencing; frameworks hold sequencing errors
Outline: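 Galactose-induced (36–48 hours) yeast carrying a synthetic nanobody display library were exposed to 10% biotinylated, detergent-solubilized Sf9 membrane reagent at 4 °C for 1 hour. FACS followed streptavidin microbead enrichment, using low and high (top ~1%) gates for expression (anti-HA) and reagent binding (streptavidin). Colony PCR, MiSeq 2 × 250 sequencing and CDR-length filtering followed. Labels for polyreactivity reflect the gate of origin.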

Sequence	polyreactivity (PSR sort gate)
QVQLVESGGGLVQAGGSLRLSCAASGRTFPIYAMGWYRQARGKERELVAAITYSGGSTYYADSVKGRFTISRDNAKNTDYLQMNSQKPEDTAVYYCAVDGTKPYWHQRYDYWGQGTQVTGSS	low polyreactivity
QVQLVESGGGLVQAGGSLRLAVLPPDLPSTLNDMGWYRQAPGKERELVAAITRGGSTNYADSVKGRFTISRDNAKNTVYLQMNSLKPEDTAVYYCAAPYAGWRDGGDYWGQGTQVTVSS	low polyreactivity
QVQLVESAGGLVQAGGSLPLSCAASGSTFASNTMGWYRQAPGKERELVAAITQSGGTTYYADSVKGRFTISRDNAKNTVSLQMNSLKPEDTAVYYCATDVGYFYTVVGGYDYWGTGTQVTVSS	low polyreactivity
QVQLVEAGGGLVQAGGSLRLSCGASGFTFVYYAMGWYRQAPGKERELVAAISRSGGSTYYADSVKGRFTISRDNAKNTVYVQMNSLKPEDTAVYYCAARKNYGSRLSYEYWGQGTQVTVSS	high polyreactivity
QVQLVESGGGLVQAGGSLRLSCAASGGIFAPYVMGWYRQAPGKERELVAGITWSGGSTYYADSVKGRFTISRDNAKITVYLQMNSLKPEDTAVYYCAAEWYYSVIWLYEYWGQVTQVTVSS	high polyreactivity
QVQLVESGGGLVQAGGSLRLSCAASGSTFSPYAMGWYRHAPGKERELVAAITSGGGSTYYADSVKGRFTISRDNAKNTVYLQMNSLKPEDTAVYYCNAYLYYLGGPYDYWGQGTQVTVSS	high polyreactivity
QVQLVESGGGLVQAGGSLRLSCAASGSIFDWYAMGWYRQAPGKERELGAAITNSGGRTYYADSVKGRFTISRDTAKNTVYLQMNSLKPEDTAVYYCNASVFRLRKMYYWGQGTPVTVSS	high polyreactivity
QVQLVESGGGLVQAGGSLRLSCAASGSIFRVYALGWSRQAPGKERELVAAISSSGGSTYYADSVKGRFTISRDNAKNTVYLQMNSLKPEDTAVYYCAAEYDGPYTWVDYYYHYGYWGQGTQVTVSS	low polyreactivity
QVQHVESGGGLVQAGGSLRLSCAASGRIFDTYTMGWYRAAPGKVRELVAAITSGGSTYYADSVKGRFTISRDNATNTVYLQMNSLKPEDTAVYYCAARYRSIIRYYYWGQGTQVTVSS	high polyreactivity
QVQLVESGGGLVQAGGSLRLSCAASGRIFYLYAMGWYRQAPGKERELVAAITWSGGSTTYADSVKGRFTISRDNAKNTFYLQMNSLKPEDTAVYYCNADGWSFPSFSPMDYWGQGTQVTVSS	low polyreactivity
QVQLVESGGGLVQAGGSLRLTCAASGITFGDYALGWYRQAPGKERELVAAITRRSGNTRYADSVKGRFTISRDNAKNTVYLQMNSLKPEDTAVYYCNARWFSYARGFENGYWGQGTQVTVSS	high polyreactivity
QVQLVESGGGLVQAGGSLRLSCAASGRIFRRYAMGWYRQAPGTERELVAAITASGGITYYADSVKGRFTISRDNAKNTVYLQMNSLKPEDTAVYYCAARGSSGYDYWGQGTQVTVSS	high polyreactivity
QVQLVESGGGLVQAGGSLRLSCAASGSIFRGYAMGWYRQAPGTERELVAAITSSAGSTYYADSVKGRFTISRDNAKNTVYLQMNSLKPEDSAVYYCNKYPRASRRGFDYWGQGTQVTVSS	high polyreactivity
QVQLVESGGGLVQAGGSLRLSCAASGSTFYYYAMGWYRQAPGKERELVAAISASGDSTYYADSVKGRFTISRDNAKNTVYLQMNSLKPEDTAVYYCAAQYYFYPHEFDYWGQGTQVTVSS	low polyreactivity
QVQLVESGGGLVQAGGSLRLSCAASGGTFSVYGMGWYRPAPGKERDLVAVINGTDGITYYADSVKARVTISRDNAKNTVYLQMNSLKPEDTAVYDCAKDSDFLAYHGLDHWGQGTLVTVSS	low polyreactivity
QVQLVESGGGLVQAGGSLRLSCAASGFIFLLYAMGWYRQAPGKERELVAAIDTDTSTNYADSVKGRFTISRDNAKNTVYLQMNSLKPEDTAVYYCAREEPGVSLGVDYDYWGQGTQVTVSS	low polyreactivity

Sequence	polyreactivity (PSR sort gate)
QVQLVESGGGLVQAGGSLRLSCAASGRIFYYNPMGWYRQAPAKERELVAAISWDGGSTYYADSVKGRFTISRDNAKNTFYLEMNCLKAEDTAVYYCAVDLYGTWYPTWFNYWGQGTQVTVSS	low polyreactivity
QVQLVESGGGLVQAGGSLRLSCADSGFTFVEYAMGWYRQAPGKERELVAAITRSGTRTYYADSVKGRFTISRDNAKNTVYLQMNSLKPEDTAVYYCNKPYSKTNHYDSWGQGTQVTVSS	high polyreactivity
QVQLVESGGGLVQAGGSLRLSCAASGRTFRQYALGWYRQAPGKEWELVATISGGGGNTYYADSVKGRFTISRDNAKKTVYLQMNSLKPEDTAFYYCAARRRDRPVRGYDYWGQGTQVTVSS	high polyreactivity
QVQLVDSRGGLVQAGGSLRLSCAASGNTFGFNAMGWNRQARGKERHLVAAITWSVGRTYYADSVKRRFTISRDHAKNTVYLEMNSLKPEDTAVYYCAKDFEAGDDYFAYDYWGQGTQVTVSS	low polyreactivity
QVQLVESGGGLVQAGGSLRLSCAASGRILGAYAMGWYRQAPGKERELVASISSGGRTYYADSVKGRFTISRDNAKNTVYLQMNSLKPEDTAVYYCAAYVYTSFLYYYWGQGTQVTVSS	high polyreactivity
QVQLVESGGGLVQAGGSLRLSCAASGRIFRPYAMGWYRQAPGKERELVAAISVSGVITYYADSVKGRFTISRDNAKNTVYLQMISLKPEDTAVYYCATDYTPRRWGRLYDYWGQGTQVTVSS	low polyreactivity
QVQLVESGGGLVQAGGSLRLSCAASGRIFYPNAMGWYRQAPGKERELVAVIRSRGGSTYYADSVKGRFTISRDNAKNTVYLQMNSLKPEDTAVYYCAARWVGRRTKYDYWGQGTQVTVSS	high polyreactivity
QVQLVESGGGLVQAGGSLRLSCAASGRIFDIYAMGWYRQAPGKERELVAAITNSGVSTYYADSVKGRFTISRDNAKNTVYLQMNSLKPEDTAVYYCNAGDFERAVVVFIQHGGYYWGQGTQVTVSS	low polyreactivity
QVQLVESGGGLVQAGGSLRLSCAASGSILVANGMGWYRKAPGKERELVAGITTRGGNTYYADSVKGRFTISRDNAKNTVYLQMNSLKPEDTAVYYCATDLIGVWYWYEYWGQGTQVTVSS	low polyreactivity
QVQLVESGGGLVQAGGSLRLSCAASGFTLYDNAMGWYRQAPWKERELVAAISWSGGSTYYADSVKGRFTISRDNAKNTVYLQMNRLKPEDTAVYYCATDFVSYAEGRMEYWGLGTQVTVSS	low polyreactivity
QVQLVESGGGLVQAGGSLRLSCAASGSTFSHYTMGWYRQAPGKERQLVAAINYGGASTYDADSVKGRFTISRDNAKNTVYLQMNSLKPEDTAVYYCAAAYRPSEQYNYWGQGTQVTVSS	low polyreactivity
QVQLVESGGGLVQAGGSLRLSCAASGRIFVVNDMGWYRQAPGKERELVAAMNSGGRTNYADSVKGRFTISRDNAKNTVYLQMPSLKPEDTAVYYCNAKRTGPWFLHVPVYYWGQGTQVTVSS	low polyreactivity
QVQLVESGGGLVQAGGSLRLSCAASGSTFSWNTMGWYRQAPGKERELVAAISRRGGSTYYADSVKGRFTISRDNAKNTVYLQMNSLKPEDTAVYYCNAKYYYGHRPATAGRYYYWGQGTQVTVSS	high polyreactivity
QVQLVESGGGLVQAGGSLRLSCAASGSTFAVYAMGWYRQAPGKERELVAVISRGANTNYADSVKGRFTISRDNAKNTVYLQMNSLKPEDTAVYYCAAPSYFTHRGRFDYWGQGTQVTVSS	low polyreactivity
QVQLVESGGGLVQAGGSLRLSCAASGIIFSNYAMGWYRQAPGKERELVAAITRSGGRTYYADSVKGRFTISRDNAKNTVYLQMNSLKPEDTAVYYCAATGRSGVLSSYYYWGQGTQVTVSS	high polyreactivity
